Results published in patent US20250136938A1.

Target: KRAS^G12V-reactive TCR (Pt. 4148)
Assay: tetramer staining, flow cytometry on 41BB-enriched CD8 memory T cells of Pt. 4148

percent of memory CD8 cells in the culture bound by tetramer: 15.9%
Substance: HLA-A*11:01-KRAS^G12V 9-mer tetramer (from UniProt P01116 8-16; P61769 21-119) (peptide-MHC)
